In article PMC3026807 one finds pKa data, which are given here for two substances.

The target in this data set is Arg224 (UniProt position 224, YHALYRYFVEL). The data set is described as follows: electrophysiology.

“TASK-2 (K2P5.1, KCNK5) two-pore-domain potassium channel (Mus musculus)”: the pKa (pHo-gated channel, closed to open on alkalinization, non-concatenated WT, cited from earlier work) is 8.0.

Regarding “TASK-2 WT-WT concatenated tandem dimer (Mus musculus; deletion of the C-terminal 148 residues (after V354) in the first protomer; insertion of L355-D356 linker; no substitution at R224 in either protomer)”, the pKa (Bath (mM): 67.5 Na2SO4, 4 KCl, 1 K gluconate, 2 CaCl2, 1 MgCl2, 105 sucrose (standard solution). The article does not state explicitly which bath was used for Figure 5. Pipette: 140 mM KCl., 10 mM Hepes/Tris, MES for pH 5.0-6.5, AMPSO for pH 8.5-9.0, CAPS for pH 9.5-11.0, concatenated WT-WT channel, pHo gating) amounted to 8.2±0.15.

A word on the pKa: it is the pH at which an ionisable group is half protonated.
